The target in one assay is human FcγRIIβ (human) (UniProt P31994). Nature of the assay: SPR, antibody captured on ProA/G HC30M chip, recombinant human FcγRIIβ injected (4 nM-5 uM); average kinetic KD.
In a further assay the target is Hu FcγRIIA_H131 (human) (UniProt P12318). Kind of assay: SPR-type chip kinetics; antibody captured on protein A/G chip, receptor as analyte.
The target in a further assay is Hu FcγRIIA_R131 (human) (UniProt P12318). The assay is described as above.

Usually Kd stands for the equilibrium constant for the complex coming apart.

Chain of Hu FcγRIIA_R131 (human) (P12318 36-218 H167R limits assumed): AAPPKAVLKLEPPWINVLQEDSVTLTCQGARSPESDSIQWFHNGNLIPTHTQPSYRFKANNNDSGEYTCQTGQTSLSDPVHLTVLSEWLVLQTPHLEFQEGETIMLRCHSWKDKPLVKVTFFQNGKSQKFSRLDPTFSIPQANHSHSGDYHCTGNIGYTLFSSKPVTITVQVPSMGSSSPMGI
Chain of human FcγRIIβ (human) (P31994 46-217 limits assumed): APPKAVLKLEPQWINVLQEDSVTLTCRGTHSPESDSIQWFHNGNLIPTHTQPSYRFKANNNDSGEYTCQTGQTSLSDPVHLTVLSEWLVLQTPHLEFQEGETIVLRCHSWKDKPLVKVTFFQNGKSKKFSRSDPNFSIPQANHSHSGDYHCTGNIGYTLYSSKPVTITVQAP
Chain of Hu FcγRIIA_H131 (human) (P12318 36-218 limits assumed): as the sequence (P12318 36-218 H167R limits assumed) above, with R132H counted along it

As for 2B6 (antibody), in the assay with human FcγRIIβ (human), the Kd was found to be 0.407 nM.
Turning to IgG1 WT (antibody), the Kd in the assay with Hu FcγRIIA_H131 (human) was 1000 nM; with Hu FcγRIIA_R131 (human), 1550 nM.

The values are drawn from patent publication US20240368283A1.
